Assay results from patent US20230040275A1, “SECRETABLE PROTEIN INDUCED IMMUNE TOLERIZATION AND TREATMENT OF AUTOIMMUNE, ALLERGIC AND OTHER DISEASES AND DISORDERS” (SPARK THERAPEUTICS, INC., priority 2019, published 2023).

System: Huh7 cells
Assay: Plasma membrane retention of full-length MOG in transformed Huh7 cells
Type: cell-based
Settings: 72 hr post-transfection, leaders WT, Sp7, HC7s
Procedure: To examine the secretability of the full-length MOG protein the plasma membrane and cell lysate and media of transformed Huh7 cells were examined for MOG expression. Huh7 cells were grown to ˜80% confluency and transformed using plasmids expressing full-length myelin oligodendrocyte glycoprotein (MOG) with various leader sequences: Wildtype (WT; native MOG leader), human chymotrypsinogen B2 signal peptide (“Sp7”; 18 amino acid signal peptide of NCBI reference sequence NP_001020371), or a combination of WT with the heavy chain 7 sequence (HC7s; Haryadi et al., PloS ONE 10(2): e0116878. doi:10.1371/journal.pone.0116878 (2015)). Cells and media were harvested 72 hr post-transfection. Plasma membrane fractions from cells were enriched as described (Nishiumi et al., Biosci. Biotechnol. Biochem. 71 (9), 2343-2346, (2007)) Briefly, cells were harvested in modified Buffer A (50 mM Tris, 0.5 mM DTT) with protease inhibitors (cOmplete™ tablets, Roche) and 0.1% Triton X100. The cells were sheared by passage through a 25-gauge needle; 3 times. The homogenate was centrifuged for 10 min at 1000×g at 4° C. The supernatant was harvested as post-plasma membrane (PPM) fraction. […] Standard WES parameters were used, and samples were analyzed on Compass Software (ProteinSimple).

B1: full-length MOG: full-length myelin oligodendrocyte glycoprotein expressed from plasmids with WT, Sp7 or HC7s leader sequences (protein, UniProt Q16653 1-247, looked up)
chain: MASLSRPSLPSCLCSFLLLLLLQVSSSYAGQFRVIGPRHPIRALVGDEVELPCRISPGKNATGMEVGWYRPPFSRVVHLYRNGKDQDGDQAPEYRGRTELLKDAIGEGKVTLRIRNVRFSDEGGFTCFFRDHSYQEEAAMELKVEDPFYWVSPGVLVLLAVLPVLLLQITVGLIFLCLQYRLRGKLRAEIENLHRTFDPHFLRVPCWKITLFVIVPVLGPLVALIICYNWLHRRLAGQFLEELRNPF
modifications: full-length
  localisation of full-length MOG (plasma membrane vs cell lysate and media): retained in the plasma membrane
Listed as Mature MOG
  localisation of full-length MOG (plasma membrane vs cell lysate and media): enriched in the plasma membrane
